Laboratory results published in US20260152767A1 (TRUSTEES OF COLUMBIA UNIVERSITY IN THE CITY OF NEW YORK, published 2026).

B1: Allomuricauda taeanensis (Ata) sigma factor E RpoE with N-terminal 3xFLAG tag (other)
chain: MLYSDFELLKIGDTSALDHIHAKYFRSILWIGRQWLNDDFLIESLVQDTFLKLWVNRDKLESPEHIFYFLRFVMKRECISYYRKPKYKFHKKVNSLEDYDNYQDYMVGYDPVNDSENLDEQESTQKSFDHIKSILPLLNADKRHLIELCLKYGFQYKAISKVMGKGIHETSREIKEAIEDIKTIVHKGNELGSNDTMTNEIKFSGELSEEQAKVLKMRCDLKYSFSEIAKELELSEKEVHQEFMKAYKLMKANHQLQLQSA
notes: Expressed in E. coli together with dCas12f, HTH and gRNA; also called FLAG-RpoE; Ata RpoE; not shown: N-terminal 3xFLAG tag
B2: Allomuricauda taeanensis (Ata) rpoE-associated nuclease-dead Cas12f (other)
chain: MGKSTLKHTRKIQILIDLPTKDEKKEVMDMMYQWRDRCFRAANIIVTHLYVQEMIKDFFYLSEGIKYKLADEKKDEKGILQRSRMNTTYRVVSDRFKGEMPTNILSTLNHGLISSFNKNRVQYWKGERSLPNFKKDMAFPFGLQGISRLVYDEEKKAFCFRLYRVPFKTYLGKDFTDKRMLLERLVKGDVKLCASNIQLNGGKIFWLAVFEIEKEKHSLKPEVIAEASLSLEYPIVVKTGKNRLTIGTKEEFLYRRLAIQAARRRTQVGATYSRSGKGKKRKLKAVDKYHKTESNYVAHRIHVYSRKLIDFCIKHQAGTLILMNQEDKVGIAKEEEFVLRNWSYYELMTKIKYKAEKAGIELIIG
notes: Untagged dCas12f, co-expressed in E. coli with its gRNA from the Ata plasmid in which the FLAG tag sits on RpoE or on HTH; also called Ata dCas12f; AtadCas12f

How the values were obtained:
[1] = target: B2; test: ChIP-seq (anti-FLAG) of N-terminally 3xFLAG-tagged Ata RpoE in E. coli co-expressing Ata dCas12f and gRNAs retargeted to four genomic sites
Method: After conjugating, the antibody-magnetic beads were added to the sonication supernatant and incubated at 4° C. for 12-16 h. Then, the magnetic beads were washed and immunoprecipitated protein bound to crosslinked DNA was eluted. Reverse-crosslinking was performed at 65° C. overnight. Samples were treated with RNase A (Thermo Fisher Scientific) and proteinase K (Thermo Fisher Scientific) and purified using QIAquick spin columns (QIAGEN). ChIP-sequencing libraries were generated using the NEBNext Ultra II DNA Library Prep Kit for Illumina (NEB). Size selection (˜450 bp fragment size) was performed using AMPure XP Beads (Beckman Coulter) and samples were sequenced using the Illumina NextSeq 500 platform in paired-end mode with 75 cycles per end. Sequencing reads were mapped to the E. coli K-12 genome (GenBank NC_000913.3) using bowtie2 and normalized using deepTools bamCoverage and visualized in IGV using counts per million (CPM). […]
Re-programmability of gRNAs for RNA-guided DNA-targeting of dCas12f and RpoE To test whether the gRNA and TAM were correctly determined by RIP-seq and ChIP-seq, new guide sequences were cloned for one representative system (here, Ata), targeting 4 different DNA sites tiled across the E. coli K-12 genome. […]

[2] = target: B1; test: summary of the ChIP-seq and ChIP-qPCR data on the Ata system in E. coli

binding result [1]	binding result [2]	Binder
binds		B1
	binds	B2
